Patent publication US20100075434A1 (NATIONAL UNIVERSITY CORPORATION TOKYO MEDICAL AND DENTAL …, published 2010)
Square brackets hold non-standard residues; d marks the D form. * marks the point of attachment. NBD = O=[N+]([O-])c1ccc(*)c2nonc12; Dap = NC[C@H](N)C(=O)O; ClAc = O=C(CCl)*

How the values were obtained:
[1] = molecular target: T1, fused protein of DsRed and PKC having at its N terminal end a tag polypeptide of sequence (A) (Homo sapiens (Human), UniProt Q05655 1-676); experiment: fluorescence microscopy of permeabilized CHO.K1 cells, 1 µM probe, NBD against DsRed localization with and without PDBu
T1 construct: Expressed in the cytoplasm of CHO.K1 cells, which were permeabilized with saponin before the probe was added; also called tag-fused PKC
Description: Subsequently, a permeabilization buffer (20 mM Hepes, pH 7.4, 140 mM KCl, 50 μg/mL saponin, 5 mM oxalic acid) was added to the thus-prepared CHO.K1 cells. After left to stand on ice for 10 min, the cells were washed with PBS, followed by incubating on ice for 20 min in PBS. Thereafter, the cells were incubated in PBS at room temperature for 2 min and then 37° C. for 2 min. Further, the cells were incubated at 37° C. for 30 min in a conditioned medium (Ham's F12) to which a probe indicated by sequence (B) (probe concentration: 1 μM (Final conc.)) had been added.
Separately, before treated with the permeabilization buffer, the above-prepared CHO.K1 cells were treated for 10 min with 10 mM DMSO containing PDBu (phorbol 12,13 dibutyrate; final concentration: 10 μM). The cells were observed by the fluorescence microscope similar to the above.
The following was used as a control; a group which was not treated with PDBu, and CHO.K1 cells to which only DIC was introduced (note that DIC is a vector used for introducing into cells the above-mentioned fused protein of DsRed and PKC having at its N terminal end a tag polypeptide indicated by sequence (A). The cells were observed as mentioned above at predetermined wavelength (515 nm to 560 nm). The results are shown in FIG. 11.

[2] = molecular target: T2, tag polypeptide of Example 1, structural formula (8) (not fully specified); experiment: fluorescence titration, tag added to 0.5 µM probe in HEPES buffer, 505 nm, 1:1 model
T2 construct: Chemically synthesized from two fragments (Chain A with the linker cysteine, Chain B) joined by native chemical ligation; also called A2
T2 peptide: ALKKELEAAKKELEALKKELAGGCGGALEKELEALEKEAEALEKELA
Description: (§1) In the fluorescence titration, the rate of change of the fluorescence intensity at 505 nm was plotted against the concentration of the tag peptide and the dissociation constant was calculated from a theoretical formula assuming 1 to 1 binding of the tag peptide to the probe peptide.
(§2) In FIG. 6, the horizontal axis represents the titer of the tag against the probe whereas the vertical axis represents the relative increase in fluorescence intensity when the fluorescence intensity detected for the probe alone at fluorescence wavelength of 505 nm is estimated as 1. […] In Example 1, the fluorescence intensity at 505 nm in the presence of 1 equivalent of tag peptide was 18 times as high as that measured in the absence of the tag peptide.

[3] = molecular target: T3, tag polypeptide of Example 3, structural formula (11) (not fully specified); experiment: as above
T3 construct: also called G2
T3 peptide: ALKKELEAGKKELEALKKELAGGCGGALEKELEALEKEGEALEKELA
Description: as §1, §2

[4] = molecular target: T4, tag polypeptide of Example 2, structural formula (10); experiment: as above
T4 construct: also called L2
T4 peptide: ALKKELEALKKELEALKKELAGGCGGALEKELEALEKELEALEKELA
Description: as §1, §2

[5] = molecular target: T2, tag polypeptide of Example 1, …; experiment: fluorescence titration, 0.5 µM probe in HEPES buffer
Description: as §1, §2

[6] = molecular target: T3, tag polypeptide of Example 3, …; experiment: as above
Description: as §1, §2

[7] = molecular target: T4, tag polypeptide of Example 2, …; experiment: as above
Description: as §1, §2

T1 sequence (Q05655 other isoform, or with tags, fused parts or gaps limits assumed): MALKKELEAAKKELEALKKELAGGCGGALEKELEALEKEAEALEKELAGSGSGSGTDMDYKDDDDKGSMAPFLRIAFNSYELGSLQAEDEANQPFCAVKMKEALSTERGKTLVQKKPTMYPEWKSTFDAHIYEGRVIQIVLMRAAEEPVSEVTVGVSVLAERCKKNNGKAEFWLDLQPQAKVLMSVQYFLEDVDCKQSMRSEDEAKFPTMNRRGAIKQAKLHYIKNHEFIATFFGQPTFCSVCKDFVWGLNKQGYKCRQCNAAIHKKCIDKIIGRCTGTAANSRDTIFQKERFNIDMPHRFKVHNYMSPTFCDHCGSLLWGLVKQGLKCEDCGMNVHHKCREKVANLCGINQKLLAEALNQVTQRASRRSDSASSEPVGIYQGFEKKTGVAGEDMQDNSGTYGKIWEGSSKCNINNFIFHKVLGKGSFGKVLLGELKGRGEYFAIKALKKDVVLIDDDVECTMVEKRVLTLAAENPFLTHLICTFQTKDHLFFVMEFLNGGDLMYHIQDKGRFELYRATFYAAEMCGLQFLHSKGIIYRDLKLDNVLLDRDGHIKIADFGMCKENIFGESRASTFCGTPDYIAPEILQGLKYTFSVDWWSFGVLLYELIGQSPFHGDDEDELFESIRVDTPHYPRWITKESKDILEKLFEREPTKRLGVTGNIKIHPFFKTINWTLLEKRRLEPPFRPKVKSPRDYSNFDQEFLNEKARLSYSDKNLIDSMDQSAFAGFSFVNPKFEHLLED

Binder	binding result [1]	Kd [2] [nM]	Kd [3] [nM]	Kd [4] [nM]	equivalents of tag peptide at which the change in fluorescence saturates [5] [equivalent]	fold increase of fluorescence intensity at 505 nm with 1 equivalent of tag peptide against probe alone [5] [times]	equivalents of tag peptide at which the change in fluorescence saturates [6] [equivalent]	equivalents of tag peptide at which the change in fluorescence saturates [7] [equivalent]
ClAc-GALKKKLEALKKK[Dap](NBD)EALKKKLA-NH2 (also called ClAc-G probe) [probe peptide for crosslink reaction, structural formula (12)]	binds	–	–	–	–	–	–	–
Ac-ALKKKLEALKKK[Dap](NBD)EALKKKLA-NH2 (SMILES CC(=O)N[C@@H](C)C(=O)N[C@@H](CC(C)C)C(=O)N[C@@H](CCCCN)C(=O)N[C@@H](CCCCN)C(=O)N[C@@H](CCCCN)C(=O)N[C@@H](CC(C)C)C(=O)N[C@@H](CCC(=O)O)C(=O)N[C@@H](C)C(=O)N[C@@H](CC(C)C)C(=O)N[C@@H](CCCCN)C(=O)N[C@@H](CCCCN)C(=O)N[C@@H](CCCCN)C(=O)N[C@@H](CNc1ccc([N+](=O)[O-])c2nonc12)C(=O)N[C@@H](CCC(=O)O)C(=O)N[C@@H](C)C(=O)N[C@@H](CC(C)C)C(=O)N[C@@H](CCCCN)C(=O)N[C@@H](CCCCN)C(=O)N[C@@H](CCCCN)C(=O)N[C@@H](CC(C)C)C(=O)N[C@@H](C)C(N)=O, the text says (9); also called L-NBD; probe peptide) [probe polypeptide of Example 1, structural formula (9)]	–	17.5	755	24.3	1	18	1	1
